# Measurements published in patent publication US20230295310A1 (ABCELLERA BIOLOGICS, published 2023).
# Numbering of substitutions follows the chain as printed.
# B1: mAb 111 (antibody, V domains shown)
# VH: EVQLVESGGVLVKTGGSLRLSCVASGFSFKKAWMNWVRQAPGKGLEWVGRIKRNSDGGAADYAAPVKDRFTLSRDDSKNTLYLQMNSLKTEDTAVYYCTTLDSSSWYVGYYYMDVWGKGTTVTVSS
# VL: DIHMTQSPSSVSASLGDRVTFTCRASQNINNWLAWYQQKPGKAPKLLIYTASSLQSGVPSRFSGSGSGTDFTLTISSLQPDDFATYYCQQAHSLPITFGQGTRLGIK
# B2: mAb 133 (antibody, V domains shown)
# VH: B1 VH with V10G, N35S, S55T, A59T, D68G, N79K, Y82F, T93S, T99V, W106Y
# VL: B1 VL with H3Q, L15V, T20S, F21I, N28D, S76G, D81E, G105E
# B3: mAb 164 (antibody, V domains shown)
# VH: B1 VH with V10G, S55T, A59T, D68G, N79K, Y82F, W106Y
# VL: B1 VL with H3Q, L15V, F21I, N28D, N30K, S76G, D81E, G105E
# B4: mAb 125 (antibody, V domains shown)
# VH: B1 VH with V10G, S55T, A59T, D68G, N79K, W106R
# VL: B1 VL with H3Q, L15V, T20I, F21I, N28D, A43V, S76G, S77T, D81E, G105D
# B5: mAb 116 (antibody, V domains shown)
# VH: B1 VH with V10G, A59T, A60T, D68G
# VL: B1 VL with H3Q, S9F, L15V, F21I, N28D, L46I, D81E, G105E
# B6: mAb 115 (antibody, V domains shown)
# VH: B1 VH with V10G, L18H, A59T, A60T, D68G, T71I
# VL: B1 VL with H3Q, L15V, F21I, N28D, L46I, S53N, D81E, Y87F, S93G, G105E
# B7: mAb 163 (antibody, V domains shown)
# VH: B1 VH with V10G, A40V, S55T, A59T, D68G, N79K, Y82F, W106Y
# VL: B1 VL with H3Q, L15V, T20I, F21I, N28D, S76G, D81E, G105E
# B8: mAb 132 (antibody, V domains shown)
# VH: B1 VH with E1D, V10G, L11T, R53K, A59T, D68G, L72I, N79K, K89Q
# VL: DIQMTQSPSSVSASVGDRVIITCRASQDINNWLAWYQQKPGIAPKLLIYTASSLQSGVPSRFSGSGSVSDFTLTIGSLQPEDFATYYCQQAHSLPITFGQGTRLEIK
# B9: mAb 122 (antibody, V domains shown)
# VH: B1 VH with V10G, S55T, A59T, D68G, N79K, W106R
# VL: B8 VL with I42K, A43V, V68G, S69T
# B10: mAb 166 (antibody, V domains shown)
# VH: B1 VH with V10G, K43R, S55T, A59T, A60T, D68G, T80M, W106L
# VL: B8 VL with I20T, I42K, V68G, S69T, G76S, Y87F, K107T
# B11: mAb 112 (antibody, V domains shown)
# VH: B1 VH with V10G, L18H, A59T, A60T, D68G, T71I
# VL: B8 VL with I20T, I42K, L46I, S53N, V68G, S69T, G76S, Y87F
# B12: mAb 131 (antibody, V domains shown)
# VH: B1 VH with V10G, L20I, S55T, A59T, A60I, D68G, T71S, Y82F, Y97F, W106Y
# VL: B1 VL with L15V, F21I, N28D, D81E, Y87F
# B13: mAb 155 (antibody, V domains shown)
# VH: B1 VH with V10G, S55T, A59T, D68G, N79K, Y82F, W106Y
# VL: B8 VL with I42K, V68G, S69T, T97S, E105D
# B14: mAb 114 (antibody, V domains shown)
# VH: B1 VH with V10G, S55T, A59P, D68G, N79K
# VL: B8 VL with Q37L, K39R, I42K, T50A, V68G, S69T, K107Q
# B15: mAb 113 (antibody, V domains shown)
# VH: B1 VH with V10G, S55T, A59T, A60T, D68G
# VL: B8 VL with I20T, I42K, L46I, V68G, S69T, G76S
# B16: mAb 120 (antibody, V domains shown)
# VH: B1 VH with V10G, S55T, A59T, D68G, N79K, Y82F, W106Y
# VL: B8 VL with I20T, I42K, V68G, S69T
# B17: mAb 123 (antibody, V domains shown)
# VH: DVQLVESGGGTVKTGGSLRLSCVASGFSFKKAWMNWVRQAPGKGLEWVGRIKKNSDDGTADYAAPVKGRFTISRDDSKRTLFLQMNSLQTEDTAVYYCTTLDSSSWFVGYYYMDVWGKGTTVTVSS
# VL: B8 VL with I42K, G76D
# B18: mAb 165 (antibody, V domains shown)
# VH: B1 VH with V10G, S55T, A59T, D68G, N79R, W106R
# VL: B8 VL with I42K, A43V, V68G, S69T
# B19: mAb 117 (antibody, V domains shown)
# VH: B1 VH with V10G, S55T, A59T, A60T, D68G, W106L
# VL: B8 VL with I20T, I42K, V68G, S69T, G76S
# B20: mAb 157 (antibody, V domains shown)
# VH: B1 VH with V10G, N54T, S55A, A60T, D68G
# VL: B1 VL with S7A, L15V, N28D, D81E
# B21: mAb 156 (antibody, V domains shown)
# VH: B1 VH with V10G, S55T, A59T, D68G, N79K, Y82F, W106Y
# VL: B8 VL with P40A, I42K, V68G, S69T
# B22: mAb 102 (antibody, V domains shown)
# VH: QVQLVESGGGVVQPGRSLRLSCAASGFSFRSYGMHWVRQAPGKGLEWVSVISYDGGNKYYADSVKGRFTISRDNSKNTLFLQMKSLRAEDTALYYCAKGGGTYWRGLFEYWGQGTLVTVSS
# VL: DIQLTQSPSFLSASVGDRVTITCRASQGISSYLAWYQKKPGKAPKLLIYAASTLHSGVPSRFSGGGSGTAFTLTISSLQPEDFATYYCQQLNNYPFTFGPGTKVDIK
# B23: mAb 106 (antibody, V domains shown)
# VH: QVQLVESGGGVVQPGRSLRLSCAASGFTFRSYGMHWVRQAPGKGLEWVAIIWYNGNKKDYVDSVKGRFTISRDNSKNTLYLQMNSLRAEDTALYYCARGPGYNWFDPWGQGTLVTVSS
# VL: DIQMTQSPPSLSASVGDRVTITCRASQRISSYLNWYQQKPGKAPKLLIYAASSLQSGVPSRFSGSGSGTDFTLTISSLQPEDFATYYCQQSDSFPLTFGGGTKVEII
# B24: mAb 110 (antibody, V domains shown)
# VH: B23 VH with T78M
# VL: B23 VL with K39R, S91T
# B25: mAb 98 (antibody, V domains shown)
# VH: QVHLVESGGDVVQPGRSLRLSCSASGFTFSGYGMHWVRQAPGKGLEWVALIYFDGRNKYYADSVKGRFTISRDNSKNTLYLQMNSLRAEDTAVYYCARGGGYNWFDPWGQGTLVTVSS
# VL: DIQMTQSPSSLSASVGDRVTITCRASQSINNYLNWYQQKPGKAPKLLIYLASSLQSGVPSRFSGSGSGTDFTLTISSLQPEDLATYYCQLSYSSPFTFGPGTKVDVK
# Molecular target: T1, human CD3 expressed on cells (human, UniProt P07766 23-207; P04234 22-171; P09693 23-182)
# T1 construct: whole, on cells; CD3 complex on Jurkat cells and on human primary T cells
# Assay: flow cytometry, 25 nM
# How it was run: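 Binding reported as fold over isotype: median fluorescence intensity divided by isotype control, with ≥10 scored positive. Cells were exposed to 25 nM antibody in PBS/2% FBS, 30 min, 4 °C, before flow cytometric read-out.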
# T1 sequence (P07766 23-207, chain 1 of 3): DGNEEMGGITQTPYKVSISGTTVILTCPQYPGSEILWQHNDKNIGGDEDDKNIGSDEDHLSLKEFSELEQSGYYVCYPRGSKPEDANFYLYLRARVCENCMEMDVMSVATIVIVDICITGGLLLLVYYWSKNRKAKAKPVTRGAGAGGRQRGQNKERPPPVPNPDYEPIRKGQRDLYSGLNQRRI
# T1 sequence (P04234 22-171, chain 2 of 3): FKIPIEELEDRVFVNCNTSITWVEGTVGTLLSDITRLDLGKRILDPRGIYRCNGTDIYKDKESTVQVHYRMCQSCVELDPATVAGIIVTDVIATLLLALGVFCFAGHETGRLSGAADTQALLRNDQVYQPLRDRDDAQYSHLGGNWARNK
# T1 sequence (P09693 23-182, chain 3 of 3): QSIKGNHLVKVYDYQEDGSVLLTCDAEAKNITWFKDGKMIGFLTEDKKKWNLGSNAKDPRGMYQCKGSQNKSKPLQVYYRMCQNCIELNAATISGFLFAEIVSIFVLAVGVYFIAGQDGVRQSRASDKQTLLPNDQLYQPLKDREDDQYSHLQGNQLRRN
Human primary T Cell Binding (FOI),Jurkat Cell Binding (FOI),Binder
168 FOI,160 FOI,B1
169 FOI,161 FOI,B2
237 FOI,137 FOI,B3
180 FOI,185 FOI,B4
174 FOI,159 FOI,B5
174 FOI,157 FOI,B6
278 FOI,118 FOI,B7
164 FOI,157 FOI,B8
174 FOI,199 FOI,B9
266 FOI,159 FOI,B10
174 FOI,158 FOI,B11
171 FOI,155 FOI,B12
274 FOI,163 FOI,B13
179 FOI,167 FOI,B14
173 FOI,157 FOI,B15
167 FOI,168 FOI,B16
171 FOI,159 FOI,B17
241 FOI,154 FOI,B18
170 FOI,155 FOI,B19
265 FOI,163 FOI,B20
243 FOI,171 FOI,B21
98.9 FOI,101 FOI,B22
210 FOI,186 FOI,B23
214 FOI,197 FOI,B24
174 FOI,181 FOI,B25

# Molecular target: T2, cynomolgus monkey CD3 expressed on primary T cells (cynomolgus monkey, UniProt Q95LI5 22-198; Q95LI8 22-171; Q95LI7 23-181)
# T2 construct: whole, on cells; CD3 complex on purified cynomolgus monkey T cells; also called cyno CD3
# Assay: flow cytometry, 25 nM, cyno primary T cells
# Protocol: Purified antibodies were confirmed to bind CD3 expressed on cells using the CytoFLEX S or LX flow cytometers (Beckman Coulter). Antibodies were diluted to 25 nM in FACS buffer (PBS+2% FBS) and were incubated with CD3-expressing cells for 30 minutes at 4° C. […] The median fluorescence intensity of the binding signal for each antibody was normalized to the isotype control to obtain a fold over isotype value. An antibody with a fold over isotype (FOI) of ≥10 was considered to be positive for binding.
# T2 sequence (Q95LI5 22-198, chain 1 of 3): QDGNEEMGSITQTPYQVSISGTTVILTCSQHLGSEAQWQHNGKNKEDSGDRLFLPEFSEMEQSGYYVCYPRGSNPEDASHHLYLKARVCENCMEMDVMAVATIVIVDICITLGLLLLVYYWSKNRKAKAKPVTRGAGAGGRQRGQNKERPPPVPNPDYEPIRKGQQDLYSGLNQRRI
# T2 sequence (Q95LI8 22-171, chain 2 of 3): as the sequence (P04234 22-171, chain 2 of 3) above, with I5V, N15K, I20V, S32T, D33N, I34N, T64A, S74N, V83L, H141R counted along it
# T2 sequence (Q95LI7 23-181, chain 3 of 3): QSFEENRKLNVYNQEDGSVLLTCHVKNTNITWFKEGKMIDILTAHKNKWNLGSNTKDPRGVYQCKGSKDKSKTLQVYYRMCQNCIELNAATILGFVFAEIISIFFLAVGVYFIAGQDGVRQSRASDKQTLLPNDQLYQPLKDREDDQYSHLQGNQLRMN
row,binding result,Binder
1,no binding (tested: FOI >=10 = positive),B1
2,no binding (tested: FOI >=10 = positive),B2
3,no binding (tested: FOI >=10 = positive),B3
4,no binding (tested: FOI >=10 = positive),B4
5,no binding (tested: FOI >=10 = positive),B5
6,no binding (tested: FOI >=10 = positive),B6
7,no binding (tested: FOI >=10 = positive),B7
8,no binding (tested: FOI >=10 = positive),B8
9,no binding (tested: FOI >=10 = positive),B9
10,no binding (tested: FOI >=10 = positive),B10
11,no binding (tested: FOI >=10 = positive),B11
12,no binding (tested: FOI >=10 = positive),B12
13,no binding (tested: FOI >=10 = positive),B13
14,no binding (tested: FOI >=10 = positive),B14
15,no binding (tested: FOI >=10 = positive),B15
16,no binding (tested: FOI >=10 = positive),B16
17,no binding (tested: FOI >=10 = positive),B17
18,no binding (tested: FOI >=10 = positive),B18
19,no binding (tested: FOI >=10 = positive),B19
20,no binding (tested: FOI >=10 = positive),B20
21,no binding (tested: FOI >=10 = positive),B21
22,no binding (tested: FOI >=10 = positive),B22
23,no binding (tested: FOI >=10 = positive),B23
24,no binding (tested: FOI >=10 = positive),B24
25,no binding (tested: FOI >=10 = positive),B25
